Test results from patent publication US20160058856A1.

Assays:
[1] = target: MHC class I molecule H-2K^d on CT26 target cells (mouse) (UniProt P01902); test: cell-based or functional assay
[2] = target: MHC class I molecule H-2L^d on CT26 target cells (mouse) (UniProt P01897); test: cell-based or functional assay
UniProt P01897, sequence (P01897 25-362): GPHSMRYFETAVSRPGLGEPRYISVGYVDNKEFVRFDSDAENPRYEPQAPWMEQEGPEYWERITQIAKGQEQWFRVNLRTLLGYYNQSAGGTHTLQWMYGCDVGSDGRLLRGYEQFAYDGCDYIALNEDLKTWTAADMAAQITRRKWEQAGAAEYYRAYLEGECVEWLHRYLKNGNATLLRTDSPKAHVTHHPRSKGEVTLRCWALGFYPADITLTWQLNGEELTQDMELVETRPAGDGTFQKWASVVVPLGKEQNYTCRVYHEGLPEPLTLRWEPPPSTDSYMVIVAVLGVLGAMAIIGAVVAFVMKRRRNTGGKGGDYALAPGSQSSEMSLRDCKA

UniProt P01902, sequence (P01902 22-368): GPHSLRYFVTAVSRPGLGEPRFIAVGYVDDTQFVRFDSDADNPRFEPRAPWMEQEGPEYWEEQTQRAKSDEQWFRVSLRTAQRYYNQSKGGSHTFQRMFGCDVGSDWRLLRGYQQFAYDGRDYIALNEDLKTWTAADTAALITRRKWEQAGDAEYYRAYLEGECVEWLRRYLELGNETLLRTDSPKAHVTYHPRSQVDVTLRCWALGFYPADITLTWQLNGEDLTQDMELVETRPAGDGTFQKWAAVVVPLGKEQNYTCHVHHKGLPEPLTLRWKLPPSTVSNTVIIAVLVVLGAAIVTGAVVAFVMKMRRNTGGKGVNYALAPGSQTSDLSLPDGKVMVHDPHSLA

anti-MHC class I monoclonal antibody H-2K^d: SF1-1.1.1 (eBioScience)
CTL activity (CFSE-based cytotoxicity assay, CT26 target cells pre-incubated with blocking antibodies) (fraction of the control values) [1]: 0.33

anti-MHC class I monoclonal antibody H-2L^d: 28-14-8 (BioLegend)
CTL activity (CFSE-based cytotoxicity assay, CT26 target cells pre-incubated with blocking antibodies) (fraction of the control values) [2]: 0.33
